Results from PMC5609113, “Substrate Specificity and Inhibitor Sensitivity of Plant UDP-Sugar Producing Pyrophosphorylases” (Frontiers in Plant Science, 2017).

Experiments:
[1] = test system: C[C@H]1O[C@H](OP(=O)(O)O)[C@H](O)[C@@H](O)[C@H]1O; assay: Pi release from PPi, phosphomolybdate colorimetry; format: biochemical, Arabidopsis thaliana; settings: forward reaction, co-substrate UTP, 5 mM MgCl2, pH 7.5, room temperature
[2] = test system: O=C(O)[C@H]1O[C@H](OP(=O)(O)O)[C@H](O)[C@@H](O)[C@H]1O; assay: Pi release from PPi, phosphomolybdate colorimetry; format: biochemical, Arabidopsis thaliana; settings: forward reaction, co-substrate UTP, 5 mM MgCl2, pH 7.5, room temperature
Arabidopsis UGPase2 = target: T1, Arabidopsis UGPase2 (Arabidopsis thaliana, UniProt P57751); assay: Pi release from PPi, phosphomolybdate colorimetry; format: biochemical; settings: 1 mM Glc-1-P; 1 mM UTP; 5 mM MgCl2; pH 7.5; room temperature
T1 construct: gene UGP1; recombinant, expressed in E. coli, purified to homogeneity as earlier reported

[3] = test system: CC(=O)N[C@H]1[C@@H](OP(=O)(O)O)O[C@H](CO)[C@H](O)[C@@H]1O; assay: Pi release from PPi, phosphomolybdate colorimetry; format: biochemical, Arabidopsis thaliana; settings: forward reaction, co-substrate UTP, 5 mM MgCl2, pH 7.5, room temperature
[4] = test system: O=c1ccn([C@@H]2O[C@H](COP(=O)(O)OP(=O)(O)OP(=O)(O)O)[C@@H](O)[C@H]2O)c(=O)[nH]1; assay: Pi release from PPi, phosphomolybdate colorimetry; format: biochemical, Arabidopsis thaliana; settings: forward reaction, co-substrate GalNAc-1-P, 5 mM MgCl2, pH 7.5, room temperature
[5] = test system: O=P(O)(O)O[C@H]1O[C@H](CO)[C@@H](O)[C@H](O)[C@H]1O; assay: Pi release from PPi, phosphomolybdate colorimetry; format: biochemical, Arabidopsis thaliana; settings: forward reaction, co-substrate UTP, 5 mM MgCl2, pH 7.5, room temperature
[6] = test system: O=c1ccn([C@@H]2O[C@H](CO[P@@](=O)(O)O[P@@](=O)(O)O[C@H]3O[C@H](CO)[C@@H](O)[C@H](O)[C@H]3O)[C@@H](O)[C@H]2O)c(=O)[nH]1; assay: purified protein; format: biochemical, Arabidopsis thaliana; settings: reverse reaction, co-substrate PPi, 5 mM MgCl2, pH 7.5
O=P(O)(O)OP(=O)(O)O = assay: purified protein; format: biochemical, Arabidopsis thaliana; settings: reverse reaction, co-substrate UDP-Glc, 5 mM MgCl2, pH 7.5
barley UGPase = target: T2, barley UGPase (Hordeum vulgare, UniProt Q43772); assay: Pi release from PPi, phosphomolybdate colorimetry; format: biochemical; settings: forward reaction, 5 mM MgCl2, pH 7.5, room temperature
T2 construct: recombinant, expressed in E. coli, purified to homogeneity as earlier reported

Arabidopsis UGPase1 = target: T3, Arabidopsis UGPase1 (Arabidopsis thaliana, UniProt Q9M9P3); assay: Pi release from PPi, phosphomolybdate colorimetry; format: biochemical; settings: forward reaction; 5 mM MgCl2; pH 7.5; room temperature; estimate, clouding at and above 3 mM
T3 construct: gene UGP2; recombinant, expressed in E. coli, purified to homogeneity as earlier reported

[7] = test system: O=P(O)(O)O[C@H]1O[C@H](CO)[C@@H](O)[C@H](O)[C@H]1O; assay: Pi release from PPi, phosphomolybdate colorimetry; format: biochemical, Hordeum vulgare; settings: forward reaction, co-substrate UTP, 5 mM MgCl2, pH 7.5, room temperature

T2 sequence (Q43772 whole entry): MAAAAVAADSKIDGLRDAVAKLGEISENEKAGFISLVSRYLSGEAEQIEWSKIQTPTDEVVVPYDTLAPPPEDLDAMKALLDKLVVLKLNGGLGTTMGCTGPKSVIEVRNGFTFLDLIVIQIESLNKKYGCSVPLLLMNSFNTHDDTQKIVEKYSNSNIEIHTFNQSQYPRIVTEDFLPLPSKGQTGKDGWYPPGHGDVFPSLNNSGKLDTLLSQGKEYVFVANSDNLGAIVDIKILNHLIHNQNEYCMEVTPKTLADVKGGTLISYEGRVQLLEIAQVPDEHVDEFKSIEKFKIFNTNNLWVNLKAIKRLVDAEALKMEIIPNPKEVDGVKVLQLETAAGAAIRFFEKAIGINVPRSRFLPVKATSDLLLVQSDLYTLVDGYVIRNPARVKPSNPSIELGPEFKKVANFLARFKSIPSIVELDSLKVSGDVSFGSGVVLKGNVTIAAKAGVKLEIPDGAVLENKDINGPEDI
T1 sequence (P57751 2-470): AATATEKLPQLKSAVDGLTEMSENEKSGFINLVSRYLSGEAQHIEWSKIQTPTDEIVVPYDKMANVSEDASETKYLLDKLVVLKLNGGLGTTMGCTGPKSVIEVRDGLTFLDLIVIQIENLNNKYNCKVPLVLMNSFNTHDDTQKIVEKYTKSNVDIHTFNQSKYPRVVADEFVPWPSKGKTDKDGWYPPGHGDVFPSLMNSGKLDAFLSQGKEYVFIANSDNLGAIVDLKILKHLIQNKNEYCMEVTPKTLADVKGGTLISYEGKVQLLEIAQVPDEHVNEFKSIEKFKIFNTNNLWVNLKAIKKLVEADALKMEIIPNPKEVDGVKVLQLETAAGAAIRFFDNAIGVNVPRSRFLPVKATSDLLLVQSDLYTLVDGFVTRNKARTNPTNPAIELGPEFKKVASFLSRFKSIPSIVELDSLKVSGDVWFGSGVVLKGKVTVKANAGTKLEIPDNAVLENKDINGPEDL
T3 sequence (Q9M9P3 2-469): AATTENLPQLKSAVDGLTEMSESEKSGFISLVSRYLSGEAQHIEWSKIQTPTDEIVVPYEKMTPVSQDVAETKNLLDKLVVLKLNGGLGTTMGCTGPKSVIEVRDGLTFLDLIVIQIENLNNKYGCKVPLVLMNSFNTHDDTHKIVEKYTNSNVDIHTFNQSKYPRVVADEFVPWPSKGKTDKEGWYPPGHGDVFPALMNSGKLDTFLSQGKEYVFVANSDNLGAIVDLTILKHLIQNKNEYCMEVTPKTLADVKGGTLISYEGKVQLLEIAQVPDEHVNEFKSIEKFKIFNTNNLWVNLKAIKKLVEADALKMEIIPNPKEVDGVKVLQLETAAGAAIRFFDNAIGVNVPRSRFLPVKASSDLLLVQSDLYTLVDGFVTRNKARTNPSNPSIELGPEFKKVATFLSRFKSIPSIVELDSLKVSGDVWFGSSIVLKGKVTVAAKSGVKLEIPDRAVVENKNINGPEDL

Arabidopsis USPase (Arabidopsis thaliana)
Km [1]: 3.4 mM
Km [2]: 1.3 mM

O=P(O)(O)O[C@H]1O[C@H](CO)[C@@H](O)[C@H](O)[C@H]1O [Glc-1-P]
Pi release from PPi, phosphomolybdate colorimetry (Arabidopsis UGPase2): plant UGPases are highly specific for Glc-1-P and UTP as substrates

Arabidopsis UAGPase2 (Arabidopsis thaliana)
Km [3]: 1.0 mM
Km [4]: 3 mM
Km [5]: 3.2 mM
Km [6]: 0.21 mM
Km (O=P(O)(O)OP(=O)(O)O): 0.32 mM

O=c1ccn([C@@H]2O[C@H](COP(=O)(O)OP(=O)(O)OP(=O)(O)O)[C@@H](O)[C@H]2O)c(=O)[nH]1 [UTP]
Pi release from PPi, phosphomolybdate colorimetry (Arabidopsis UGPase2): plant UGPases are highly specific for Glc-1-P and UTP as substrates

O=P(O)(O)OCC1(O)O[C@H](CO)[C@@H](O)[C@@H]1O (some centres unmarked) [Fru-1-P]
Km (barley UGPase; estimate, clouding at and above 3 mM): > 10 mM
Km (Arabidopsis UGPase1): > 10 mM

O=P(O)(O)O[C@]1(CO)O[C@H](CO)[C@@H](O)[C@@H]1O [Fru-2-P]
Km (barley UGPase): > 10 mM

barley UGPase (Hordeum vulgare)
Km [7]: 0.45 mM

O=P(O)(O)O[C@H]1O[C@H](CO)[C@H](O)[C@H](O)[C@H]1O [Gal-1-P]
Km (barley UGPase; estimate from near-linear rate up to 10 mM): > 10 mM
